From patent US20090062512A1, “Comparative ligand mapping from MHC class I positive cells” (priority 2000, published 2009)
Values joined by “and” are separate entries in the source; they are usually repeats but may differ in a detail not shown here. Equal values may be shown once.

These substances were tested against B*0702 class I MHC molecules in cells infected with the PR8 strain of influenza A virus (Homo sapiens, UniProt P01889). Settings: not given.
Assay type: cell-based

Substance | Fold Increase
AARPATSTL | 5.1
APAGRKVGL | 1.5
APGAPPRTL | 1.5
APKIGPLGL | 1.54
APKRPPSAF | 1.82
APNRPPAAL | 1.5
APPPPPKAL | 2.29
APRGTGIVSA | 2.2
APRPPPKM | 2.9
APRPVAVAV | 1.5
ARPATSL | 2.2
DPMKARVVL | 1.87
EPRPPHGEL | 2.7
GPPGTGKTAL | 1.5
GPREAFRQL | 6.03
GPRSSLRVL | 3.16

Substance | Fold Increase
GPYPYTL | 2.01
HLNEKRRF | 2.02
IPSIQSRGL | 1.6
ITAPPSRVL | 1.98
KPQDYKKR | 2.9
LLPGENINLL | 7.13
LPKPPGRGV | 1.9
LPRGSSPSVL | 1.57
LPSSGRSSL | 2
LVFQPVAEL | 4.33
NLGSPRPL | 5.6
NLPLSNLAI | 4.3
NPASKVIAL | 1.64
PKFEVIEKPQA | 3.6
RIVPRFSEL | 1.54

Same assay, conditions: PR8B0702: presentation by sHLA B*0702, influenza PR8 infected vs uninfected cells

Substance | Fold Increase
APEEHPVLL (listed as Homo sapiens) | 1.92
GPLDIEWLI (listed as Homo sapiens) | 2.2

What follows are substances tested against A*0201 class I MHC molecules in cells infected with the PR8 strain of influenza A virus (Homo sapiens, UniProt P04439, D140Y/D185E/D98H/E176V/E277Q/G131W/G231S/I119V/I121R/I166T/I218V/L300P/L318F/N151K/N90K/P208A/P217A/Q86G/Q94H/R138H/R169H/T345S). Settings: not given.
Assay type: cell-based

Substance | Fold Increase
AIIGGTFTV | 4.17
AIVDKVPSV | 1.88
ALASHLIEA | 1.67
ALDEKLLNI | 1.61
ALDKATVLL | 2.13
ALLAGSEYLKL | 1.51
ALLDKLYAL | 3.1
ALLSAVTRL | Unique
ALMDEVVKA | 2.59
ALNDHFVKL | 23.02
ALNEKLVNL | 1.52
ALQELLSKGL | 2.8
ALSDGVHKI | 1.88 and 2.36
ALVEIGPRFVL | 10.83
ALVSSLHLL | 1.51
ALWEAKEGGLL | 1.54
AMIELVERL | 1.81
AVGKVIPEL | 12.46
AVSDGVIKV | 8.98
FAITAIKGV | 3.49
FIQTQQLHAA | Unique
FLAEEGFYKF | 2.98

Substance | Fold Increase
FLASESLIKQIPR | Unique
FLFNTENKL | 1.85
FLGRINEI | 1.99
FLLEKGYEV | 1.81
FLPSYIIDV | 2.57
FMFDEKLVTV | 1.99
GIDSSSPEV | Unique
GIVEGLMTTV | 3.1
GIWGFIKGV | 6.1
GLAEDSPKM | 2
GLAKLIADV | 2.91
GLATDVQTV | 3.5
GLDIDGIYRV | 1.95
GLDKQIQEL | 4.09
GLGPTFKL | unique
GLIDGRLTI | 1.67
GLIENDALL | 1.71
GLLDPSVFHV | 2.17
GLMTTVHAIT | 2.5
GLMTTVHAITA | 3.2
GLMTTVHAITAT | Unique
GLMTTVHAITATQ | Unique

Substance | Fold Increase
GLQDFDLLRV | 2.29
GLWDKFSEL | 2.59
GMASVISRL | Unique
GMYIFLHTV | 2.32
GMYVFLHAV | 2.73
GVAESIHLWEV | 2.89
GVIAEILRGV | 1.56
GVLDNIQAV | Unique
GVYGDVHRV | 2.9
IIMLEALERV | 13.68
ILCPMIFNL | 2.51
ILDKKVEKV | Unique
ILGYTEHQV | 23.91
ILMEHIHKL | 5.46
ILSGVVTKM | 1.74
ILYDIPDIRL | 5.99
IMLEALERV | 1.64
KAPPAPLAA | Unique
KIADFGWSV | 2.26
KIAPNTPQL | 2.63
KIFEMGPVFTL | 6.45
KIIDEDGLLNL | 1.56

Substance | Fold Increase
KLDEGNSL | 4.32
KLDPTKTTL | 2.93
KLEEIIHQI | 2.08
KLFDDDETGKISF | Unique
KLFPDTPLAL | Unique
KLIGDPNLEFV | 2.82
KLLDFGSLSNL | 3.57
KLLEGEESRISL | 2.1
KLMELHGEGSS | Unique
KLQEFLQTL | 2.3
KMLEKLPEL | 2.14
KMWDPHNDPNA | Unique
KMYEEFLSKV | 1.8
KVFDPVPVGV | 1.74
KVPEWVDTV | 5.94
LLDANLNIKI | 2.78
LLDVPTAAV | 5.18
LLDVTPLSL | 9.68
LLDVVHPA | 33.09
LLDVVHPAA | 3.43
LLLDVPTAAV | 1.95
LLLDVPTAAVQA | 6.24

Substance | Fold Increase
LMTTVHAITAT | Unique
NDHFVKL | 7.75
QLLGSAHEV | 4.98
RLDDVSNDV | 2.55
RLIDLGVGL | 2.03
RLTPKLMEV | 2.2
RLWPKIQGL | Unique
RLYPWGVVEV | 2.79
RVPPPPPIA | 6.54
SIIGRLLEV | 56.92
SLAKIYTEA | 5.38
SLDQPTQTV | 9.84
SLFEGTWYL | 2.36
SLLDIIEKV | 2.56
SLWSIISKV | 3.06
SLYEMVSRV | 1.87
SMLEDVQRA | 2.4
SMMDVDHQI | 3.58
SMPDFDLHL | 1.83
SMTLAIHEI | 2.11
TIAQLHAV | Unique
TLAEIAKVEL | 3.32

Substance | Fold Increase
TLAEVERLKGL | Unique
TLAKYLMEL | 6.81
TLDEYTTRV | 3.74
TLIDLPGITKV | 6.48
TLIGLSIKV | 2.28
TLLEDGTFKV | 1.67
TLQEVFERATF | Unique
TLWDIQKDLK | 1.64
TLWGIQKEL | 3.27
TLWPEVQKL | 2.97
VINDVRDIFL | 1.71
VLEDPVHAV | 3.91
VLFDVTGQVRL | 2.48
VLLSDSNLHDA | 10.95
VMDSKIVQV | 22.84
VVQDGIVKA | Unique
YAYDGKDYI | Unique
YAYDGKDYIA | 1.6
YLDIKGLLDV | 2.44
YLDKVRALE | Unique
YMEEIYHRI | 3.98
